Source: patent publication US20100311648A1 (AstraZeneca / MedImmune, published 2010)
One block for each binder: values may come before it. Positions of bridges follow the written chain, without caps; N, C: chain ends. Non-standard residues stand in square brackets, D forms with d. dPhe(3,4,5-F3) = N[C@H](Cc1cc(F)c(F)c(F)c1)C(=O)O; dPhe(2-CF3) = N[C@H](Cc1ccccc1C(F)(F)F)C(=O)O; dPhe(3,5-F2) = N[C@H](Cc1cc(F)cc(F)c1)C(=O)O; dPhe(4-CN) = N#Cc1ccc(C[C@@H](N)C(=O)O)cc1; dPhe(3-Cl) = N[C@H](Cc1cccc(Cl)c1)C(=O)O; dPhe(2-Cl) = N[C@H](Cc1ccccc1Cl)C(=O)O; dPhe(2-Me) = Cc1ccccc1C[C@@H](N)C(=O)O; Orn = NCCC[C@H](N)C(=O)O

Legend:
[1] = biological target: T1, human melanocortin-4 receptor (human, UniProt P32245 1-332); assay: cell-based or functional assay
[2] = biological target: T1, human melanocortin-4 receptor; assay: [I125]-NDP-α-MSH competition, hMC4-R HEK-293 membranes
Experimental: A competitive inhibition binding assay was performed for exemplified peptides according to the invention using membrane homogenates prepared from HEK-293 cells that express recombinant hMC4-R, hMC3-R, or hMC5-R, and from B-16 mouse melanoma cells (containing endogenous MC1-R). In some instances, HEK-293 cells that express recombinant hMC1-R were employed. Assays were performed in 96 well GF/B Millipore multiscreen filtration plates (MAFB NOB10) pre-coated with 0.5% bovine serum albumin (Fraction V). […] After incubation for 60 minutes at 37° C., the assay mixture was filtered and the membranes washed three times with ice-cold buffer. Filters were dried and counted in a gamma counter for bound radioactivity. […] Each assay was conducted in triplicate and the actual mean values are described, with results less than 0% reported as 0%. Ki values for test peptides of the present invention were determined using Graph-Pad Prism® curve-fitting software.

T1 sequence (P32245 whole entry): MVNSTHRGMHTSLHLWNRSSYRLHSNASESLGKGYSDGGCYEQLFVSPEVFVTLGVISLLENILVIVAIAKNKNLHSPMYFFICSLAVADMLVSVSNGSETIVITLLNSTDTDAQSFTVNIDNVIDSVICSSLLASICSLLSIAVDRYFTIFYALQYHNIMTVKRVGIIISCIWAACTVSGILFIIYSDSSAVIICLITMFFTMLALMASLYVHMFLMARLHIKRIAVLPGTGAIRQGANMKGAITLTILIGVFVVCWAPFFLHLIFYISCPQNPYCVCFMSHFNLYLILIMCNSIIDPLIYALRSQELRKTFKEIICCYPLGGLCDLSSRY

Binder: Ac-R[Orn]Q[dPhe(3,4,5-F3)]RWE-NH2 (lactam 2-7) [Ac-Arg-cyclo(Orn-Gln-D-Phe(3,4,5-triF)-Arg-Trp-Glu)-NH2]
EC50, cAMP, 0.1 ng/mL Doxycycline [1]: 0.45 nM
EC50, cAMP, 10 ng/mL Doxycycline [1]: 0.14 nM
Intrinsic Activity, cAMP, 0.1 ng/mL Doxycycline [1]: 47%
Intrinsic Activity, cAMP, 10 ng/mL Doxycycline [1]: 100%

B1: Ac-Arg-cyclo(Glu-Arg-D-Phe(3-Cl)-Arg-Trp-Orn)-NH2 (peptide)
peptide: Ac-RER[dPhe(3-Cl)]RW[Orn]-NH2
modifications: lactam 2-7
SMILES: CC(=O)N[C@@H](CCCNC(=N)N)C(=O)N[C@H]1CCC(=O)NCCC[C@@H](C(N)=O)NC(=O)[C@H](Cc2c[nH]c3ccccc23)NC(=O)[C@H](CCCNC(=N)N)NC(=O)[C@@H](Cc2cccc(Cl)c2)NC(=O)[C@H](CCCNC(=N)N)NC1=O
notes: also called No. 99
EC50, cAMP, 10 ng/mL Doxycycline [1]: 0.14 nM
Intrinsic Activity, cAMP, 0.1 ng/mL Doxycycline [1]: 32%
Intrinsic Activity, cAMP, 10 ng/mL Doxycycline [1]: 94%
Ki [2]: 0.5 nM

B2: Ac-Arg-cyclo(Glu-Thr-D-Phe(2-Cl)-Arg-Trp-Orn)-NH2 (peptide)
peptide: Ac-RET[dPhe(2-Cl)]RW[Orn]-NH2
modifications: lactam 2-7
SMILES: CC(=O)N[C@@H](CCCNC(=N)N)C(=O)N[C@H]1CCC(=O)NCCC[C@@H](C(N)=O)NC(=O)[C@H](Cc2c[nH]c3ccccc23)NC(=O)[C@H](CCCNC(=N)N)NC(=O)[C@@H](Cc2ccccc2Cl)NC(=O)[C@H]([C@@H](C)O)NC1=O
notes: also called No. 32
EC50, cAMP, 0.1 ng/mL Doxycycline [1]: 18 nM
EC50, cAMP, 10 ng/mL Doxycycline [1]: 0.543 nM
Intrinsic Activity, cAMP, 0.1 ng/mL Doxycycline [1]: 34%
Intrinsic Activity, cAMP, 10 ng/mL Doxycycline [1]: 96%
Ki [2]: 11 nM

Binder: Ac-REN[dPhe(2-Me)]RW[Orn]-NH2 (lactam 2-7, also called No. 73) [Ac-Arg-cyclo(Glu-Asn-D-Phe(2-Me)-Arg-Trp-Orn)-NH2]
EC50, cAMP, 0.1 ng/mL Doxycycline [1]: 0.587 nM
EC50, cAMP, 10 ng/mL Doxycycline [1]: 0.068 nM
Intrinsic Activity, cAMP, 0.1 ng/mL Doxycycline [1]: 86%
Intrinsic Activity, cAMP, 10 ng/mL Doxycycline [1]: 102%
Ki [2]: 4 nM

Binder: Ac-REN[dPhe(2-CF3)]RW[Orn]-NH2 (lactam 2-7, also called No. 116) [Ac-Arg-cyclo(Glu-Asn-D-Phe(2-CF3)-Arg-Trp-Orn)-NH2]
EC50, cAMP, 0.1 ng/mL Doxycycline [1]: 0.68 nM
EC50, cAMP, 10 ng/mL Doxycycline [1]: 0.095 nM
Intrinsic Activity, cAMP, 0.1 ng/mL Doxycycline [1]: 77%
Intrinsic Activity, cAMP, 10 ng/mL Doxycycline [1]: 104%
Ki [2]: 7 nM

Binder: Ac-REN[dPhe(3,4,5-F3)]RW[Orn]-NH2 (lactam 2-7, also called No. 95) [Ac-Arg-cyclo(Glu-Asn-D-Phe(3,4,5-triF)-Arg-Trp-Orn)-NH2]
EC50, cAMP, 0.1 ng/mL Doxycycline [1]: 1 nM
EC50, cAMP, 10 ng/mL Doxycycline [1]: 0.125 nM
Intrinsic Activity, cAMP, 0.1 ng/mL Doxycycline [1]: 42%
Intrinsic Activity, cAMP, 10 ng/mL Doxycycline [1]: 100%
Ki [2]: 3 nM

B3: Ac-Arg-cyclo(Glu-Pro-D-Phe(2-Cl)-Arg-Trp-Orn)-NH2 (peptide)
peptide: Ac-REP[dPhe(2-Cl)]RW[Orn]-NH2
modifications: lactam 2-7
SMILES: CC(=O)N[C@@H](CCCNC(=N)N)C(=O)N[C@H]1CCC(=O)NCCC[C@@H](C(N)=O)NC(=O)[C@H](Cc2c[nH]c3ccccc23)NC(=O)[C@H](CCCNC(=N)N)NC(=O)[C@@H](Cc2ccccc2Cl)NC(=O)[C@@H]2CCCN2C1=O
notes: also called No. 88
EC50, cAMP, 10 ng/mL Doxycycline [1]: 0.35 nM
Intrinsic Activity, cAMP, 0.1 ng/mL Doxycycline [1]: 15%
Intrinsic Activity, cAMP, 10 ng/mL Doxycycline [1]: 89%
Ki [2]: 5 nM

Binder: Ac-REN[dPhe(4-CN)]RW[Orn]-OH (lactam 2-7, also called No. 85) [Ac-Arg-cyclo(Glu-Asn-D-Phe(4-CN)-Arg-Trp-Orn)-OH]
EC50, cAMP, 0.1 ng/mL Doxycycline [1]: 15 nM
EC50, cAMP, 10 ng/mL Doxycycline [1]: 0.707 nM
Intrinsic Activity, cAMP, 0.1 ng/mL Doxycycline [1]: 36%
Intrinsic Activity, cAMP, 10 ng/mL Doxycycline [1]: 94%
Ki [2]: 64 nM

Binder: Ac-REV[dPhe(4-CN)]RW[Orn]-NH2 (lactam 2-7, also called No. 42) [Ac-Arg-cyclo(Glu-Val-D-Phe(4-CN)-Arg-Trp-Orn)-NH2]
EC50, cAMP, 10 ng/mL Doxycycline [1]: 0.5 nM
Intrinsic Activity, cAMP, 0.1 ng/mL Doxycycline [1]: 9%
Intrinsic Activity, cAMP, 10 ng/mL Doxycycline [1]: 84%
Ki [2]: 6 nM

Binder: Ac-REN[dPhe(3,5-F2)]RW[Orn]-NH2 (lactam 2-7, also called No. 76) [Ac-Arg-cyclo(Glu-Asn-D-Phe(3,5-diF)-Arg-Trp-Orn)-NH2]
EC50, cAMP, 0.1 ng/mL Doxycycline [1]: 3 nM
EC50, cAMP, 10 ng/mL Doxycycline [1]: 0.135 nM
Intrinsic Activity, cAMP, 0.1 ng/mL Doxycycline [1]: 53%
Intrinsic Activity, cAMP, 10 ng/mL Doxycycline [1]: 85%
Ki [2]: 20 nM

Binder: Ac-R[Orn]N[dPhe(3,4,5-F3)]RWE-NH2 (lactam 2-7) [Ac-Arg-cyclo(Orn-Asn-D-Phe(3,4,5-triF)-Arg-Trp-Glu)-NH2]
EC50, cAMP, 10 ng/mL Doxycycline [1]: 0.235 nM
Intrinsic Activity, cAMP, 0.1 ng/mL Doxycycline [1]: 24%
Intrinsic Activity, cAMP, 10 ng/mL Doxycycline [1]: 100%

Next, values leading:

EC50, cAMP, 0.1 ng/mL Doxycycline [1]: 0.575 nM
EC50, cAMP, 10 ng/mL Doxycycline [1]: 0.053 nM
Intrinsic Activity, cAMP, 0.1 ng/mL Doxycycline [1]: 81%
Intrinsic Activity, cAMP, 10 ng/mL Doxycycline [1]: 104%
Binder: Ac-R[Orn]Q[dPhe(2-Me)]RWE-NH2 (lactam 2-7) [Ac-Arg-cyclo(Orn-Gln-D-Phe(2-Me)-Arg-Trp-Glu)-NH2]

EC50, cAMP, 10 ng/mL Doxycycline [1]: 269 nM
Intrinsic Activity, cAMP, 0.1 ng/mL Doxycycline [1]: 2%
Intrinsic Activity, cAMP, 10 ng/mL Doxycycline [1]: 69%
Ki [2]: 1090 nM
Binder: Ac-REE[dPhe(4-CN)]RW[Orn]-OH (lactam 2-7) [Ac-Arg-cyclo(Glu-Glu-D-Phe(4-CN)-Arg-Trp-Orn)-OH]

EC50, cAMP, 0.1 ng/mL Doxycycline [1]: 6 nM
EC50, cAMP, 10 ng/mL Doxycycline [1]: 0.27 nM
Intrinsic Activity, cAMP, 0.1 ng/mL Doxycycline [1]: 27%
Intrinsic Activity, cAMP, 10 ng/mL Doxycycline [1]: 93%
Ki [2]: 4 nM
B4: Ac-Arg-cyclo(Glu-Lys-D-Phe(3-Cl)-Arg-Trp-Orn)-NH2 (peptide)
peptide: Ac-REK[dPhe(3-Cl)]RW[Orn]-NH2
modifications: lactam 2-7
SMILES: CC(=O)N[C@@H](CCCNC(=N)N)C(=O)N[C@H]1CCC(=O)NCCC[C@@H](C(N)=O)NC(=O)[C@H](Cc2c[nH]c3ccccc23)NC(=O)[C@H](CCCNC(=N)N)NC(=O)[C@@H](Cc2cccc(Cl)c2)NC(=O)[C@H](CCCCN)NC1=O
notes: also called No. 100

EC50, cAMP, 10 ng/mL Doxycycline [1]: 1 nM
Intrinsic Activity, cAMP, 0.1 ng/mL Doxycycline [1]: 8%
Intrinsic Activity, cAMP, 10 ng/mL Doxycycline [1]: 89%
Ki [2]: 6 nM
B5: Ac-Arg-cyclo(Glu-Thr-D-Phe(3-Cl)-Arg-Trp-Orn)-NH2 (peptide)
peptide: Ac-RET[dPhe(3-Cl)]RW[Orn]-NH2
modifications: lactam 2-7
SMILES: CC(=O)N[C@@H](CCCNC(=N)N)C(=O)N[C@H]1CCC(=O)NCCC[C@@H](C(N)=O)NC(=O)[C@H](Cc2c[nH]c3ccccc23)NC(=O)[C@H](CCCNC(=N)N)NC(=O)[C@@H](Cc2cccc(Cl)c2)NC(=O)[C@H]([C@@H](C)O)NC1=O
notes: also called No. 36

EC50, cAMP, 10 ng/mL Doxycycline [1]: 1 nM
Intrinsic Activity, cAMP, 0.1 ng/mL Doxycycline [1]: 6%
Intrinsic Activity, cAMP, 10 ng/mL Doxycycline [1]: 84%
Ki [2]: 10 nM
Binder: Ac-RES[dPhe(3-Cl)]RW[Orn]-NH2 (lactam 2-7, also called No. 35) [Ac-Arg-cyclo(Glu-Ser-D-Phe(3-Cl)-Arg-Trp-Orn)-NH2]

EC50, cAMP, 0.1 ng/mL Doxycycline [1]: 0.666 nM
EC50, cAMP, 10 ng/mL Doxycycline [1]: 0.173 nM
Intrinsic Activity, cAMP, 0.1 ng/mL Doxycycline [1]: 40%
Intrinsic Activity, cAMP, 10 ng/mL Doxycycline [1]: 97%
Ki [2]: 4 nM
Binder: Ac-REQ[dPhe(4-CN)]RW[Orn]-NH2 (lactam 2-7; also: acetate salt, acetate salt form; also called Ex 46) [Ac-Arg-cyclo(Glu-Gln-D-Phe(4-CN)-Arg-Trp-Orn)-NH2]

EC50, cAMP, 0.1 ng/mL Doxycycline [1]: 0.8 nM
EC50, cAMP, 10 ng/mL Doxycycline [1]: 0.1 nM
Intrinsic Activity, cAMP, 0.1 ng/mL Doxycycline [1]: 49%
Intrinsic Activity, cAMP, 10 ng/mL Doxycycline [1]: 100%
B6: Ac-Arg-cyclo(Glu-Gln-D-Phe(3,4,5-triF)-Arg-Trp-Orn)-NH2 (peptide)
peptide: Ac-REQ[dPhe(3,4,5-F3)]RW[Orn]-NH2
modifications: lactam 2-7
SMILES: CC(=O)N[C@@H](CCCNC(=N)N)C(=O)N[C@H]1CCC(=O)NCCC[C@@H](C(N)=O)NC(=O)[C@H](Cc2c[nH]c3ccccc23)NC(=O)[C@H](CCCNC(=N)N)NC(=O)[C@@H](Cc2cc(F)c(F)c(F)c2)NC(=O)[C@H](CCC(N)=O)NC1=O
